Results reported in patent US20230272011A1 (AVACTA LIFE SCIENCES, published 2023).
Each block holds one binder with its values, some of them ahead of it.

Experiments:
[1] = target: T1, cynomolgus serum albumin (cynomolgus); test: Octet biolayer interferometry, pH 6.0
T1 construct: also called CSA; cyno serum albumin
Description: (§1) Biotinylated antigen was captured onto SA sensors at 1 μg/ml for 600 seconds in a buffer comprising PBS-T (0.01% Tween 20)+1% casein at either pH 6.0 or 7.4. Association was carried out for 300 seconds and dissociation for 600 seconds, and regeneration was performed using 10 mM glycine pH 1.5 (GE Healthcare) for 3×5 seconds. All steps were carried out at 1000 rpm and 25° C. Purified AFFIMER® polypeptide in two-fold serial dilutions was analyzed at a starting concentration of approximately 10× K_{D value}. Kinetics analyses were carried out using the Octet data analysis software, subtracting the reference sensor (loaded with antigen), aligning the Y-axis to baseline, and using inter-step correction to align association to dissociation. Savitzky-Golay filtering was applied and the data processed. Analysis of the data was carried out with a 1:1 model, global fit, Rₘₐₓ unlinked by sensor.
(§2) AFFIMER® polypeptides were incubated with AcTEV for 1 hour at 30° C. as recommend by the manufacturer (Invitrogen) and removal of cleaved His tag by binding NiNTA resin (Generon) and collecting the cleaved protein flow through. […] Pharmacokinetic profile of IV-injected His tag cleaved AFFIMER® protein compared to C-terminally His-tagged AFFIMER® protein was evaluated.

[2] = target: T2, mouse serum albumin (mouse, UniProt P07724 25-608); test: Octet biolayer interferometry, pH 6.0
T2 construct: also called MSA
T2 sequence (P07724 25-608 limits assumed): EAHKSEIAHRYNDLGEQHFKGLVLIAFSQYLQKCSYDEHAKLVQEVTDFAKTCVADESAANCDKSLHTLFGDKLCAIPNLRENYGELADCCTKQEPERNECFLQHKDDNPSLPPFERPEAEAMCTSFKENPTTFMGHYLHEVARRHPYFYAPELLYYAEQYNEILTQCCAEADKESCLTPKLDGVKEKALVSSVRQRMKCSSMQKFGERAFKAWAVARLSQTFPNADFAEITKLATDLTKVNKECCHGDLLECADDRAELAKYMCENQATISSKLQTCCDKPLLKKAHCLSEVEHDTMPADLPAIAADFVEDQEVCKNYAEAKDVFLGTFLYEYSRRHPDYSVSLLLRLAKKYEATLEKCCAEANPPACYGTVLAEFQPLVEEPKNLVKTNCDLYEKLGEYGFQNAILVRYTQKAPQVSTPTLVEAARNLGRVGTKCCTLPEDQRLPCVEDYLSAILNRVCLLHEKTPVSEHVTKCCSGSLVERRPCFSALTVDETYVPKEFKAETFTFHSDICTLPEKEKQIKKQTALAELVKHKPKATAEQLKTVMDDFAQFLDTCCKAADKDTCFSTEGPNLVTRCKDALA
Description: as §1, §2

[3] = target: T3, human serum albumin (human, UniProt P02768 25-609); test: Octet biolayer interferometry, pH 6.0
T3 construct: mature; Bought protein; biotinylated in the Octet and HTRF assays; also called HSA; HuSA
Description: as §1, §2

[4] = target: T1, cynomolgus serum albumin; test: Octet biolayer interferometry, pH 7.4
Description: as §1, §2

[5] = target: T2, mouse serum albumin; test: Octet biolayer interferometry, pH 7.4
Description: as §1, §2

[6] = target: T3, human serum albumin; test: Octet biolayer interferometry, pH 7.4
Description: as §1, §2

[7] = target: T1, cynomolgus serum albumin; test: Octet biolayer interferometry, biotinylated albumin on SA sensors, pH 7.4
Description: as §1

[8] = target: T2, mouse serum albumin; test: as above
Description: as §1

[9] = target: T3, human serum albumin; test: as above
Description: as §1

[10] = target: T3, human serum albumin; test: binding ELISA on coated albumin, pH 6.0, panel 'HSA Binding at pH 6.0'
Description: (§3) Briefly, ELISA was performed as follow:
(§4) Human (Sigma-Aldrich); Cynomolgus and Mouse (Abcam); Equine (Abcam); Canine (Abcam); Mouse (Sigma-Aldrich); Rabbit (Sigma-Aldrich); Porcine (Sigma-Aldrich);, and Rat (Sigma-Aldrich) serum albumin were coated overnight on 96 well plates (Corning Costar) at 1 μg/ml in PBS at the appropriate pH (pH 6.0 or 7.4). Plates were saturated using 5% Casein (Sigma-Aldrich) buffer in PBS. […] Plates were then washed and AFFIMER® proteins were detected using a biotinylated polyclonal antibody anti-Cystatin (R&D System) for 90 minutes. After washing, streptavidin-HRP (Thermo Fisher Scientific) was added and incubated for 30 minutes.

[11] = target: T1, cynomolgus serum albumin; test: SPR (Biacore T200), albumin amine-coupled to CM5, Affimer analyte, pH 7.4
Description: (§5) Affinities for mouse, human, and cynomolgus serum were also measured at pH 7.4 for four (4) AFFIMER® binders using surface plasmon resonance (SPR) (FIG. 5, Table 5). […] A concentration titration of AFFIMER® monomers was run as analyte at a flow rate of 30 μl/min or 60 μl/min. Fc2-1, Fc3-1 and Fc4-1 kinetic data was blank subtracted and fit to a 1:1 Langmuir binding model (BIAcore Evalution software; GE) to calculate KD values.

[12] = target: T2, mouse serum albumin; test: as above
Description: as §5

[13] = target: T3, human serum albumin; test: as above
Description: as §5

[14] = target: equine serum albumin (equine, UniProt P35747 25-607); test: binding ELISA, coated albumin, pH 7.4
equine serum albumin, sequence (P35747 25-607 limits assumed): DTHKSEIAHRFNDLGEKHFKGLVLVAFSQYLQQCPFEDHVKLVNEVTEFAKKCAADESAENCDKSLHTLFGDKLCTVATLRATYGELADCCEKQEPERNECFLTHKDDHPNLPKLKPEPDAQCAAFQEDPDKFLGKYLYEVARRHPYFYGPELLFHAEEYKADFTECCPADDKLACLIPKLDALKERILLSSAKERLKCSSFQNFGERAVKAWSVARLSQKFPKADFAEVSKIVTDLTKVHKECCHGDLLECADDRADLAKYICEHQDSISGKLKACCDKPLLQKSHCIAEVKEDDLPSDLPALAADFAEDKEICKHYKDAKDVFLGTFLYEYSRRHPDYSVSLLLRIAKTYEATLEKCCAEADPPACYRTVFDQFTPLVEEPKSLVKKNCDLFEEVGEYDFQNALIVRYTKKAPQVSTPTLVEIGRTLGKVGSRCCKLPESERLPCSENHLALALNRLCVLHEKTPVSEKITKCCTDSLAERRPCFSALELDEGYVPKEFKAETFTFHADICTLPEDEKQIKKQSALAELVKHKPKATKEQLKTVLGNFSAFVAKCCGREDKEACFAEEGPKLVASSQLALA
Description: as §3, §4

[15] = target: T1, cynomolgus serum albumin; test: binding ELISA, coated albumin, pH 7.4
Description: as §3, §4

[16] = target: T4, canine serum albumin (canine, UniProt P49822 25-608); test: binding ELISA, coated albumin, pH 7.4
T4 sequence (P49822 25-608 limits assumed): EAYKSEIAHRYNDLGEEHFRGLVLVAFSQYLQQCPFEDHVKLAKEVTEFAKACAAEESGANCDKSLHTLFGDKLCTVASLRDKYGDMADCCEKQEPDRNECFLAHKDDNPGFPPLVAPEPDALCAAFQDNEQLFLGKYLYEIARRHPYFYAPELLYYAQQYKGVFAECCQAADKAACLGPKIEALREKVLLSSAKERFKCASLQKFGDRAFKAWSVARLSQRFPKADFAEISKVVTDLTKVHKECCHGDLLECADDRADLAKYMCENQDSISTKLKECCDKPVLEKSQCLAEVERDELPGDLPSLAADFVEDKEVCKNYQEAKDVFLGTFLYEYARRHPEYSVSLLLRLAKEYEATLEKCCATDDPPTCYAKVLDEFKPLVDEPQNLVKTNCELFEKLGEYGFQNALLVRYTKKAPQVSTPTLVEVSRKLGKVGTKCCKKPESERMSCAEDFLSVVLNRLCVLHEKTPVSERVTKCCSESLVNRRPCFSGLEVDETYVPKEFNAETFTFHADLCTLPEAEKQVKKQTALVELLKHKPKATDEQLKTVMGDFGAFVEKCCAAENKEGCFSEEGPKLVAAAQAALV
Description: as §3, §4

[17] = target: rat serum albumin (rat, UniProt P02770 25-608); test: binding ELISA, coated albumin, pH 7.4
rat serum albumin, sequence (P02770 25-608 limits assumed): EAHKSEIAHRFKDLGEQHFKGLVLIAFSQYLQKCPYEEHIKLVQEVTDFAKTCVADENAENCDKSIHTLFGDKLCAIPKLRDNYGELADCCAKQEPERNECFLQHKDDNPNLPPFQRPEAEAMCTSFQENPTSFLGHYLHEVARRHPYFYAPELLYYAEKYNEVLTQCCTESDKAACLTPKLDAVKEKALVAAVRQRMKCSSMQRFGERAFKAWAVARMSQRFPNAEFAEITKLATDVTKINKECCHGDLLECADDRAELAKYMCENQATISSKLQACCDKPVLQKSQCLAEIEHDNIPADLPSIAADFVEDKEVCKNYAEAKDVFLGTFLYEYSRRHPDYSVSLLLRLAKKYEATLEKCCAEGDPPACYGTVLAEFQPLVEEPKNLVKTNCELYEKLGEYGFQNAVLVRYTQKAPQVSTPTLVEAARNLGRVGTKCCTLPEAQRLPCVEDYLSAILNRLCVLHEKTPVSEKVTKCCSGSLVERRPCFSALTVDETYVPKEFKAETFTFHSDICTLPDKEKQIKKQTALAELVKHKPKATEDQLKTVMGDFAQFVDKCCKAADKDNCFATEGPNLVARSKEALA
Description: as §3, §4

[18] = target: porcine serum albumin (porcine, UniProt P08835 25-607); test: binding ELISA, coated albumin, pH 7.4
porcine serum albumin, sequence (P08835 25-607 limits assumed): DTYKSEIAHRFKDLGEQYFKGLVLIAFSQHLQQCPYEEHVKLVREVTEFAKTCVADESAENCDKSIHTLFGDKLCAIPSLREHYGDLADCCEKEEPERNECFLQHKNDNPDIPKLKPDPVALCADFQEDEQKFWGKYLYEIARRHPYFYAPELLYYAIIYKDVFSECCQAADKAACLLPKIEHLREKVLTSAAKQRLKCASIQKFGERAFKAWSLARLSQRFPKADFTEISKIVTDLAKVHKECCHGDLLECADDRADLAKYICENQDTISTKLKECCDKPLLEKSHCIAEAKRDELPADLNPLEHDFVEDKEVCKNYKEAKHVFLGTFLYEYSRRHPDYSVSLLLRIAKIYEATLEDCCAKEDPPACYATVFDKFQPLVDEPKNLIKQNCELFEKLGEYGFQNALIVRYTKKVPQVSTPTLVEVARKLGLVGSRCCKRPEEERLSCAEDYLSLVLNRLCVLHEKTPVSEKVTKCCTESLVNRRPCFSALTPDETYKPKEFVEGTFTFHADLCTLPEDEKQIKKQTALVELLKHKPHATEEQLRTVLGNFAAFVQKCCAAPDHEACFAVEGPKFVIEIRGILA
Description: as §3, §4

[19] = target: T3, human serum albumin; test: binding ELISA, coated albumin, pH 7.4
Description: as §3, §4

[20] = target: rabbit serum albumin (rabbit, UniProt P49065 25-608); test: binding ELISA, coated albumin, pH 7.4
rabbit serum albumin, sequence (P49065 25-608 limits assumed): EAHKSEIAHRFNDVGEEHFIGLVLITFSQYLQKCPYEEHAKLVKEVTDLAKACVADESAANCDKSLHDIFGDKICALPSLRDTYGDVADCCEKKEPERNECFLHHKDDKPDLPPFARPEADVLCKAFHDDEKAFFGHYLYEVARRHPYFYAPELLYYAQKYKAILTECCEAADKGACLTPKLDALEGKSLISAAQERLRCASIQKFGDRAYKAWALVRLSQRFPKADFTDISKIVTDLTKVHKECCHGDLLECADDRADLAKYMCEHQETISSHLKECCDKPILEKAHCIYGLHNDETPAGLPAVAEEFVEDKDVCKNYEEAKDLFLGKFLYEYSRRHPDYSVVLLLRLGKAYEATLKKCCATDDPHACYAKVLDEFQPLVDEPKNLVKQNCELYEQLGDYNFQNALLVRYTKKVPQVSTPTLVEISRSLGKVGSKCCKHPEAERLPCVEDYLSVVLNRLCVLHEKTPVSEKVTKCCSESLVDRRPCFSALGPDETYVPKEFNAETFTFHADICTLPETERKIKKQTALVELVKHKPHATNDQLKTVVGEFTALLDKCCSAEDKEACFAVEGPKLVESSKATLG
Description: as §3, §4

[21] = target: T1, cynomolgus serum albumin; test: Octet biolayer interferometry, biotinylated albumin on SA sensors, pH 6.0
Description: as §1

[22] = target: T2, mouse serum albumin; test: as above
Description: as §1

[23] = target: T3, human serum albumin; test: as above
Description: as §1

[24] = target: T1, cynomolgus serum albumin; test: BLI (Octet), biotinylated albumin on SA sensor, pH 6.0
Description: as §1

[25] = target: T2, mouse serum albumin; test: as above
Description: as §1

[26] = target: T3, human serum albumin; test: as above
Description: as §1

[27] = target: T4, canine serum albumin; test: binding ELISA on coated albumin, pH 6.0, panel 'Canine SA Binding at pH 6.0'
Description: as §3, §4

[28] = target: T1, cynomolgus serum albumin; test: BLI (Octet), biotinylated albumin on SA sensor, pH 7.4
Description: as §1

[29] = target: T2, mouse serum albumin; test: as above
Description: as §1

[30] = target: T3, human serum albumin; test: as above
Description: as §1

[31] = target: T3, human serum albumin; test: Biacore, immobilised HSA, running buffer pH 7.4
Description: as §5

[32] = target: T3, human serum albumin; test: Biacore, immobilised HSA, running buffer pH 6.0
Description: (§6) […] Fc2-1, Fc3-1 and Fc4-1 kinetic data was blank subtracted and fit to a 1:1 Langmuir binding model (BIAcore Evalution software; GE) to calculate KD values.

[33] = target: T3, human serum albumin; test: binding ELISA on coated HSA, pH 7.4
Description: (§7) After saturation with 5% PBS Casein pH 7.5, plates were washed and a dilution of AFFIMER® trimers or controls were incubated on the plate for 90 minutes. Plates were then washed, and a biotinylated polyclonal antibody anti-cystatin A (R&D Systems) was added for 1 hour. Plates were washed and AFFIMER® ILFs were detected using streptavidin-HRP. After a last washing step, TMB was added for the development of the experiment, and the plates were read at 450 nm.

[34] = target: T2, mouse serum albumin; test: Biacore, immobilised MSA, pH 6.0
Description: as §6

[35] = target: T2, mouse serum albumin; test: binding ELISA on coated MSA, pH 7.4
Description: as §7

[36] = target: T5, human PD-L1-Fc (R&D Systems) chimeric protein (human, UniProt Q9NZQ7 19-239); test: Biacore single cycle kinetics on human PD-L1 Fc
T5 construct: Bought reagent; also called rhPD-L1-Fc; huPD-L1; Fc part of the bought chimera not given, not described
T5 sequence (Q9NZQ7 19-239, change not shown): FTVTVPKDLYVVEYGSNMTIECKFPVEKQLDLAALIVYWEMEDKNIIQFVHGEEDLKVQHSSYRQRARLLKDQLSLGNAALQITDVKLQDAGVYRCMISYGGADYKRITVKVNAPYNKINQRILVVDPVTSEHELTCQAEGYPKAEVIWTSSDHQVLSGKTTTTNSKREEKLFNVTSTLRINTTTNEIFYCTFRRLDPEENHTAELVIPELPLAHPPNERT

[37] = target: T6, mPD-L1 (mouse, UniProt Q9EP73 19-238, limits assumed); test: competition ELISA: mPD-L1 pre-incubated with the AFFIMER polypeptide and added to coated mPD-1; blocked ligand mPD-1
T6 construct: May be the same reagent as the mouse PD-L1-Fc of the Biacore run
T6 sequence (Q9EP73 19-238 limits assumed): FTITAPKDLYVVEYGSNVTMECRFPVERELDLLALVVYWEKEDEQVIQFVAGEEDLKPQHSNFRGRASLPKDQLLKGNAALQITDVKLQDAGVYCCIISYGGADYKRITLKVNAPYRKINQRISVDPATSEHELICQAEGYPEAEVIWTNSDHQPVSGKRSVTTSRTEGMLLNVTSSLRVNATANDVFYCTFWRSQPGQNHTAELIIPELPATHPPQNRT
Description: Briefly, PD-1 was coated overnight on the plate at 1 μg/ml in carbonate buffer. Then plates were saturated using 5% Casein/PBS buffer. […] After saturation, the mix was added to the plates and incubated for 90 minutes. Plates were then washed and the detection polyclonal antibody, biotinylated anti-PD-L1, was added. After washing the plates, streptavidin-HRP was added for 30 minutes. After a final wash, development of the reaction was performed using TMB (Pierce) and the plates were read using a plate reader at 450 nm (FIG. 26C).

T1 sequence (A2V9Z4 25-608): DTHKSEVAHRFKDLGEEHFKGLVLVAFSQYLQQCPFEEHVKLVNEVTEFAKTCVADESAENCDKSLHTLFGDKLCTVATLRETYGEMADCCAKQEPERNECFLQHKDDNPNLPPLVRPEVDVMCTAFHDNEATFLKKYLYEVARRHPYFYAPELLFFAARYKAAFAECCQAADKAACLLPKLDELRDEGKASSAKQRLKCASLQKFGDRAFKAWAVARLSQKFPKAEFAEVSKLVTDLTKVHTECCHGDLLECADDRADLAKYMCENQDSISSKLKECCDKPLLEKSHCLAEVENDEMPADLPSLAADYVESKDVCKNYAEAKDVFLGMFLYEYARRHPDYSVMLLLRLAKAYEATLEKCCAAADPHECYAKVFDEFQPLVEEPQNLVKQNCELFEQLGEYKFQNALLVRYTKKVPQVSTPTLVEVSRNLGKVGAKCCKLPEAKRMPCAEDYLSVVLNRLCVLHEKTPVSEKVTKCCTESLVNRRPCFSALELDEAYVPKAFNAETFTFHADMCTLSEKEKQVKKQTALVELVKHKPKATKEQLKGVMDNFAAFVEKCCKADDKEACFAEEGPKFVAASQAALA

B3: AVA04-251 XT60 (designed binder)
chain: MIPRGLSEAKPATPEIQEIVDKVKPQLEEKTNETYGKLEAVQYKTQVLAREGRQDWVLSTNYYIKVRAGDNKYMHLKVFNGPWVPFPHQQLADRVLTGYQVDKNKDDELTGFAEAAAKEAAAKEAAAKEAAAKEAAAKEAAAKMIPRGLSEAKPATPEIQEIVDKVKPQLEEKTNETYGKLEAVQYKTQVLAREGRQDWVLSTNYYIKVRAGDNKYMHLKVFNGPWVPFPHQQLADRVLTGYQVDKNKDDELTGFAEAAAKEAAAKEAAAKEAAAKEAAAKEAAAKMIPRGLSEAKPATPEIQEIVDKVKPQLEEKTNETYGKLEAVQYKTQVLADWWQAKWPHSTNYYIKVRAGDNKYMHLKVFNGPYKVHQSSGGADRVLTGYQVDKNKDDELTGFHHHHHH
Kd [31]: 661 nM
koff [31]: 0.00846 s⁻¹
kon [31]: 12800 M⁻¹ s⁻¹
Kd [32]: 67.8 nM
koff [32]: 0.00339 s⁻¹
kon [32]: 50100 M⁻¹ s⁻¹
EC50 [33]: 5.7 nM
Kd [34]: 108 nM
koff [34]: 0.0326 s⁻¹
kon [34]: 301000 M⁻¹ s⁻¹
EC50 [35]: 134 nM
Kd [36]: 0.558 nM
koff [36]: 0.000331 s⁻¹
kon [36]: 594000 M⁻¹ s⁻¹

B4: AVA04-182 (designed binder)
chain: MIPRGLSEAKPATPEIQEIVDKVKPQLEEKTNETYGKLEAVQYKTQVLAFALPEFEYMSTNYYIKVRAGDNKYMHLKVFNGPPMIRRKNEVADRVLTGYQVDKNKDDELTGF
notes: also called its control
IC50 [37]: 112 nM

Further lines, results first:

Kd [1]: 189 nM
Kd [2]: 38.1 nM
Kd [3]: 4.71 nM
Kd [4]: 280 nM
Kd [5]: 104 nM
Kd [6]: 7.65 nM
B1: HSA-41, C-terminal 6x His tag cleaved (designed binder)
chain: MIPRGLSEAKPATPEIQEIVDKVKPQLEEKTNETYGKLEAVQYKTQVLANFFQRRWPGSTNYYIKVRAGDNKYMHLKVFNGPWKFRNTDRGADRVLTGYQVDKNKDDELTGFEQKLISEEDL
notes: also called His tag cleaved AFFIMER protein; C-terminally His tag cleaved AFFIMER lead clone

koff [7]: 0.0505 s⁻¹
kon [8]: 215000 M⁻¹ s⁻¹
koff [9]: 0.00257 s⁻¹
kon [9]: 18900 M⁻¹ s⁻¹
EC50 (read off the curve) [10]: ~400 nM
Kd [11]: 1510 nM
koff [11]: 0.16 s⁻¹
kon [11]: 106000 M⁻¹ s⁻¹
Kd [12]: 207 nM
koff [12]: 0.15 s⁻¹
kon [12]: 726000 M⁻¹ s⁻¹
Kd [13]: 200 nM
koff [13]: 0.00451 s⁻¹
kon [13]: 22500 M⁻¹ s⁻¹
EC50 [14]: 662 nM
EC50 [15]: 447 nM
EC50 [16]: 383 nM
EC50 [17]: 9.73 nM
EC50 [18]: 268 nM
EC50 [19]: 687 nM
EC50 [20]: 863 nM
koff [21]: 0.0123 s⁻¹
kon [21]: 10800 M⁻¹ s⁻¹
koff [22]: 0.0874 s⁻¹
kon [22]: 200000 M⁻¹ s⁻¹
koff [23]: 0.00175 s⁻¹
kon [23]: 15400 M⁻¹ s⁻¹
Kd [24]: 1140 nM
Kd [25]: 435 nM
Kd [26]: 132 nM
EC50 (read off the curve) [27]: ~200 nM
Kd [28]: 2600 nM
Kd [29]: 244 nM
Kd [30]: 136 nM
B2: HSA-36 (designed binder)
chain: MIPRGLSEAKPATPEIQEIVDKVKPQLEEKTNETYGKLEAVQYKTQVLAGHYARYWPGSTNYYIKVRAGDNKYMHLKVFNGPWAQKSKVHQADRVLTGYQVDKNKDDELTGFHHHHHH
